1 substance from patent publication US20240158489A1 can be followed below.

Details in all cases: bispecific antibody
The target in experiment [1] is huANG2 (UniProt O15123). Put plainly: -; FIG. 2A.
A further experiment addresses huVEGF (UniProt P15692). The experiment is described as follows: -; FIG. 2B.
The target of experiment [2] is huANG2 (UniProt O15123). The experiment is described as follows: -; FIG. 2B.

Sequence of huANG2 (O15123 19-496): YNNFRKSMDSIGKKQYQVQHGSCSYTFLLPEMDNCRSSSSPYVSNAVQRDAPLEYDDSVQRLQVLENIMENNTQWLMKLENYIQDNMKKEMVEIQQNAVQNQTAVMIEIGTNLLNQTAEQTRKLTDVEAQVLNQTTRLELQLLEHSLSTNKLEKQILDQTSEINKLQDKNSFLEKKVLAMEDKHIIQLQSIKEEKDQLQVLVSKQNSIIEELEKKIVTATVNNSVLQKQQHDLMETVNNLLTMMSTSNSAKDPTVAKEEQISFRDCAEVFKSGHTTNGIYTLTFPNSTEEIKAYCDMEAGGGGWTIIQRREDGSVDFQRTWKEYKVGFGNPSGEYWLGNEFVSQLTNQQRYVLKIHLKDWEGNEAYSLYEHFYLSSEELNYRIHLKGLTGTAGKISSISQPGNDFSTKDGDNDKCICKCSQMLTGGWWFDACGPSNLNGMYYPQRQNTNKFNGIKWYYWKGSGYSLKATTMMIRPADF
Sequence of huVEGF (P15692 other isoform, or with tags, fused parts or gaps): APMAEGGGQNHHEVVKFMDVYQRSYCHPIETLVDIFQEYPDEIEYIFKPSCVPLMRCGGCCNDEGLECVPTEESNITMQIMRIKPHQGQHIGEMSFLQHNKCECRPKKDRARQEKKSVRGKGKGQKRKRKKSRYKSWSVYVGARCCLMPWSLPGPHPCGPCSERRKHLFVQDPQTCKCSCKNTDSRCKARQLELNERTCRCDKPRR

Broadly, the Kd is the free concentration of one partner at which half of the binding sites on the other are occupied at equilibrium, for simple one-to-one binding. Read a low Kd as a tighter complex. “anti-ANG-2×VEGF bispecific antibody ABP201”: the results for the Kd in the experiment with huANG2 [1], with huVEGF and in the experiment with huANG2 [2] were 32.1 nM, 1.37 nM and 32.1 nM, respectively.
